Assays:
RlmCD 1-454 E443Q [1] = target: T1, RlmCD 1-454 E443Q (Streptococcus pneumoniae, UniProt Q97R12 1-454, E443Q); assay: X-ray crystallography; SAH (SAM added); covalent C408-U747; EMSA: 20 mM Tris-HCl pH 8.0, 250 mM NaCl, 1 mM MgCl2, 0.5 uM FAM-RNA, 5 uM SAH, 0-5 uM protein, 37 C 30 min; 10% native PAGE on ice; conditions: protein: recombinant; tags: 8xHis-SUMO removed by ULP1; single strand
RlmCD 1-454 E443Q [2] = target: T1, RlmCD 1-454 E443Q; assay: X-ray crystallography; SAH (SAM added); covalent C408-U747; space group P1, two complexes per asymmetric unit; EMSA: 20 mM Tris-HCl pH 8.0, 250 mM NaCl, 1 mM MgCl2, 0.5 uM FAM-RNA, 5 uM SAH, 0-5 uM protein, 37 C 30 min; 10% native PAGE on ice; conditions: protein: recombinant; tags: 8xHis-SUMO removed by ULP1; hairpin, 2 bp stem (743-754, 744-753)
RlmCD WT = RlmCD WT (Streptococcus pneumoniae, UniProt Q97R12 1-543); assay: EMSA; 5 uM SAH; two shifted bands; EMSA: 20 mM Tris-HCl pH 8.0, 250 mM NaCl, 1 mM MgCl2, 0.5 uM FAM-RNA, 5 uM SAH, 0-5 uM protein, 37 C 30 min; 10% native PAGE on ice; conditions: protein: recombinant; tags: 8xHis-SUMO removed by ULP1; label: 5'-FAM; 5' single strand with 3' hairpin
RlmCD F145A = RlmCD F145A (Streptococcus pneumoniae, UniProt Q97R12 1-543, F145A); assay: EMSA; 5 uM SAH; almost no effect vs WT; EMSA: 20 mM Tris-HCl pH 8.0, 250 mM NaCl, 1 mM MgCl2, 0.5 uM FAM-RNA, 5 uM SAH, 0-5 uM protein, 37 C 30 min; 10% native PAGE on ice; conditions: protein: recombinant; tags: 8xHis-SUMO removed by ULP1; label: 5'-FAM; 5' single strand with 3' hairpin
RlmCD D381A = RlmCD D381A (Streptococcus pneumoniae, UniProt Q97R12 1-543, D381A); assay: EMSA; 5 uM SAH; not severely affected vs WT; EMSA: 20 mM Tris-HCl pH 8.0, 250 mM NaCl, 1 mM MgCl2, 0.5 uM FAM-RNA, 5 uM SAH, 0-5 uM protein, 37 C 30 min; 10% native PAGE on ice; conditions: protein: recombinant, tags: 8xHis-SUMO removed by ULP1, label: 5'-FAM
RlmCD Q283A = RlmCD Q283A (Streptococcus pneumoniae, UniProt Q97R12 1-543, Q283A); assay: as above; conditions: protein: recombinant, tags: 8xHis-SUMO removed by ULP1, label: 5'-FAM
RlmCD 1-454 E443Q [3] = target: T1, RlmCD 1-454 E443Q; assay: X-ray crystallography; SAH (SAM added); covalent C408-U1939; 3.10 A; EMSA: 20 mM Tris-HCl pH 8.0, 250 mM NaCl, 1 mM MgCl2, 0.5 uM FAM-RNA, 5 uM SAH, 0-5 uM protein, 37 C 30 min; 10% native PAGE on ice; conditions: protein: recombinant; tags: 8xHis-SUMO removed by ULP1; single strand
[4] = 5' single strand with 3' hairpin
[5] = hairpin, 2 bp stem (743-754, 744-753)

## GUUGAAAA (ssRNA, m5 at U747 formed in crystal, covalent to C408) [U747L]
RlmCD 1-454 E443Q [1]
  binding result: binds

## CCGUUGAAAAGG (structured_RNA, m5 at U747 formed in crystal, covalent to C408) [U747SL]
RlmCD 1-454 E443Q [2]
  binding result: binds

## GCGAAAUUCCUUGUCGGGUAAGUUCCGACC (structured_RNA) [FAM-U1939 30-nt]
RlmCD WT
  binding result: binds
RlmCD F145A
  binding result: binds
RlmCD D381A; [4]
  binding result: binds
RlmCD Q283A; [4]
  binding result: binds

## AAAUUCCU (ssRNA, m5 at U1939 formed in crystal, covalent to C408) [U1939L]
RlmCD 1-454 E443Q [3]
  binding result: binds

## CCGUUGAAAAGG (structured_RNA) [FAM-U747SL]
RlmCD D381A; [5]
  binding result: binds
RlmCD Q283A; [5]
  binding result: binds

— publication PMC6235398, “Unveiling the structural features that determine the dual methyltransferase activities of Streptococcus pneumoniae RlmCD”
